The values that follow come from article PMC4095729.

The assay addresses biotinylated DAE10 peptide (Aβ1-10 conjugated to biotin at the carboxy-terminus). As to the kind of experiment: SPR; BIAcore; biotinylated DAE10 peptide (Aβ1-10) immobilised on streptavidin coated chips at low density (4 to 7 RU); whole antibodies injected in triplicate at 100 nM, 30 μl/minute; apparent rate constants, bivalent model, KD corrected for active concentration of antibody.

B1: Humanized 3D6 version 1 (antibody, V domains shown)
VH: EVQLLESGGGLVQPGGSLRLSCAASGFTFSNYGMSWVRQAPGKGLEWVASIRSGGGRTYYSDNVKGRFTISRDNAKNSLYLQMNSLRAEDTALYYCVRYDHYSGSSDYWGQGTLVTVSS
VL: YVVMTQSPLSLPVTPGEPASISCKSSQSLLDSDGKTYLNWLLQKPGQSPQRLIYLVSKLDSGVPDRFSGSGSGTDFTLKISRVEAEDVGVYYCWQGTHFPRTFGQGTKVEIK
On to B1, for which the Kd stood at 2.1 nM, the koff was 0.000399 s⁻¹ and the kon was 189000 M⁻¹ s⁻¹.

B2: Bapineuzumab (humanized 3D6, version 2) (antibody, V domains shown)
VH: EVQLLESGGGLVQPGGSLRLSCAASGFTFSNYGMSWVRQAPGKGLEWVASIRSGGGRTYYSDNVKGRFTISRDNSKNTLYLQMNSLRAEDTAVYYCVRYDHYSGSSDYWGQGTLVTVSS
VL: DVVMTQSPLSLPVTPGEPASISCKSSQSLLDSDGKTYLNWLLQKPGQSPQRLIYLVSKLDSGVPDRFSGSGSGTDFTLKISRVEAEDVGVYYCWQGTHFPRTFGQGTKVEIK
As for B2, the Kd came to 2.8 nM, the koff was found to be 0.000423 s⁻¹ and the kon was 150000 M⁻¹ s⁻¹.
